Results reported in patent US20250144035A1, “Method of Increasing Epithelial Permeability Using Nanoparticles” (Carnegie Mellon University, priority 2017, published 2025).

Key:
mice = assay: Intestinal insulin delivery, blood glucose; assay type: in vivo
[1] = Method: Following ten hours of fasting, mice were orally gavaged with PBS (for control) or nanoparticle suspensions (100 mg/kg unless otherwise specified). Two hours later, their initial blood sugar was measured, and the animals were placed under anesthesia. Their intestines were surgically exposed, and insulin was injected at the predetermined dose (1 unit per kg body weight unless otherwise specified) into the duodenum. The mice were closed and secured with tissue adhesive, then kept under anesthesia as their blood sugar levels were monitored each hour for five hours. For comparison to the current standard of insulin delivery, subcutaneous injections were given to additional mice, into the scruff on their necks. To determine specific insulin concentrations, blood samples were collected and separated via centrifugation. The serum was subjected to ELISA analysis for human insulin (LifeTechnologies®, Carlsbad, CA) per the instructions of the kit manufacturer.

insulin
blood glucose response (mice; 1 U/kg subcutaneous): pronounced, but brief response | blood glucose, response to insulin dose (mice; increasing intestinal insulin dose, constant particle administration of 100 mg/kg): increased magnitude and duration of hypoglycemia | blood insulin concentration ([1]; intestinal insulin along with nanoparticles): slight elevations in blood insulin that persisted for at least four hours | return of blood insulin to normal levels ([1]; subcutaneous injection): shortly after two hours | time of spike in blood insulin concentration ([1]; subcutaneous injection): ≤ 30 min
